Assay results: PMC6698656, “Structural insights into dimethylation of 12S rRNA by TFB1M: indispensable role in translation of mitochondrial genes and mitochondrial function”

How the values were obtained:
Settings in all cases: protein: recombinant; tags: His6-MBP N-terminal, removed by TEV; label: 5'-FAM; hairpin
hsTFB1M E246A = hsTFB1M E246A (Homo sapiens, UniProt Q8WVM0 28-346, E246A); assay: EMSA; affinity not impaired; EMSA: 50 mM Tris-HCl pH 8.0, 25 mM NaCl, 100 nM RNA, TFB1M 0-2 mM as printed (legend suggests uM), 37 C 30 min; 6% native PAGE, 0.5x TBE
hsTFB1M R195A = hsTFB1M R195A (Homo sapiens, UniProt Q8WVM0 28-346, R195A); assay: as above
hsTFB1M I152A = hsTFB1M I152A (Homo sapiens, UniProt Q8WVM0 28-346, I152A); assay: as above
hsTFB1M V225A = hsTFB1M V225A (Homo sapiens, UniProt Q8WVM0 28-346, V225A); assay: EMSA; affinity not significantly changed vs WT; EMSA: 50 mM Tris-HCl pH 8.0, 25 mM NaCl, 100 nM RNA, TFB1M 0-2 mM as printed (legend suggests uM), 37 C 30 min; 6% native PAGE, 0.5x TBE
hsTFB1M N36A = hsTFB1M N36A (Homo sapiens, UniProt Q8WVM0 28-346, N36A); assay: as above
hsTFB1M Q35A = hsTFB1M Q35A (Homo sapiens, UniProt Q8WVM0 28-346, Q35A); assay: as above
hsTFB1M F144A = hsTFB1M F144A (Homo sapiens, UniProt Q8WVM0 28-346, F144A); assay: as above
hsTFB1M E179A = hsTFB1M E179A (Homo sapiens, UniProt Q8WVM0 28-346, E179A); assay: EMSA; affinity improved to some degree; EMSA: 50 mM Tris-HCl pH 8.0, 25 mM NaCl, 100 nM RNA, TFB1M 0-2 mM as printed (legend suggests uM), 37 C 30 min; 6% native PAGE, 0.5x TBE
hsTFB1M Q177A = hsTFB1M Q177A (Homo sapiens, UniProt Q8WVM0 28-346, Q177A); assay: as above

Measured: binding result

Chain of hsTFB1M V225A (Q8WVM0 28-346 V225A): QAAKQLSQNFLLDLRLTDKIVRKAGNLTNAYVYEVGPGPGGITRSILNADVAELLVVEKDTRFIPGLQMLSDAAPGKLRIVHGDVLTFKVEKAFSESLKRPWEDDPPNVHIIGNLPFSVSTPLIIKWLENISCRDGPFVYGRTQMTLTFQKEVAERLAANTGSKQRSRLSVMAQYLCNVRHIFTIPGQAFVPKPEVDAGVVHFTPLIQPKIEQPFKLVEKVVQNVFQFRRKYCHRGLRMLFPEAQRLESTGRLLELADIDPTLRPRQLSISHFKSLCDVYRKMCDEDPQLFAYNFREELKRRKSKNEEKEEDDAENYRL
Chain of hsTFB1M Q35A (Q8WVM0 28-346 Q35A): as the sequence (Q8WVM0 28-346 V225A) above, with Q8A, A198V counted along it
Chain of hsTFB1M F144A (Q8WVM0 28-346 F144A): as the sequence (Q8WVM0 28-346 V225A) above, with F117A, A198V counted along it
Chain of hsTFB1M I152A (Q8WVM0 28-346 I152A): as the sequence (Q8WVM0 28-346 V225A) above, with I125A, A198V counted along it
Chain of hsTFB1M E179A (Q8WVM0 28-346 E179A): as the sequence (Q8WVM0 28-346 V225A) above, with E152A, A198V counted along it
Chain of hsTFB1M N36A (Q8WVM0 28-346 N36A): as the sequence (Q8WVM0 28-346 V225A) above, with N9A, A198V counted along it
Chain of hsTFB1M E246A (Q8WVM0 28-346 E246A): as the sequence (Q8WVM0 28-346 V225A) above, with A198V, E219A counted along it
Chain of hsTFB1M R195A (Q8WVM0 28-346 R195A): as the sequence (Q8WVM0 28-346 V225A) above, with R168A, A198V counted along it
Chain of hsTFB1M Q177A (Q8WVM0 28-346 Q177A): as the sequence (Q8WVM0 28-346 V225A) above, with Q150A, A198V counted along it

GGUAAGUGUACUGGAAAGUGCACUUGCC (structured_RNA) [5'-FAM h45 RNA (WT)]
binds: all assays above
